Source: US5508261, “Analogs of glycoprotein hormones having altered receptor binding specificity and activity and methods for preparing and using same” (University of Medicine & Dentistry of New Jersey, dated 1996)

Columns and labels:
[1] = molecular target: T1, bovine testes FSH receptors (bovine, UniProt P35376); experiment: inhibition of 125I-hFSH binding to bovine testes FSH receptors (N.D. in Table 3)
[2] = molecular target: rat luteal ovarian LH receptors (rat, UniProt P16235); experiment: inhibition of 125I-hCG binding to rat luteal ovarian LH receptors
Experimental: (§1) The concentrations of the analogs were determined by sandwich immunoassay using antibodies B105 and A113. The term "N.D." means not determined because concentrations of analog were not employed high enough to detect 50% inhibition.
An aliquot of the ligation mixture was taken and used to transform DH5-alpha strain E. coli. (obtained from Bethesda Research Laboratories, Gaithersburg, Md.). Plasmid DNAs from ampicillin-resistant DH5-alpha clones were screened by digestion with BglII (which is unique to vectors containing the cassette) and EcoRI (which cuts in the vector). Positive clones were identified by the presence of two fragments (approximately 0.8 Kbp and 2.9 Kbp). […] The remainder of the beta-subunit cDNA (encoding hCGβ amino acids 1–87) was restored by ligation of the 2.3 Kbp PvuI-PvuII fragment of this vector and the 2.9 Kbp PvuI-PvuII fragment from pSVL-hCG-beta'. […] After the DNA was subjected to a dideoxy sequencing procedure to confirm that it encoded "GT" (Table 1), the plasmid DNA was then cotransfected into COS-7 cells (obtained from the American Type Culture Collection) along with pSVL-hCG-alpha, a pSVL-based plasmid encoding the human glycoprotein hormone alpha-subunit (10, 21), using a DEAE-dextran procedure (10).

[3] = molecular target: T1, bovine testes FSH receptors; experiment: inhibition of 125I-hFSH binding to bovine testes FSH receptors
Experimental: as §1

binding result [1] | activity relative to hCG (LH RECEPTORS; ratio of concentrations for 50% inhibition) [2] | binding result [2] | binding result [3] | Binder
– | – | – | no binding | recombinant hCG (ligand) chain 1: not shown chain 2: SKEPLRPRCRPINATLAVEKEGCPVCITVNITICAGYCPTMTRVLQGVLPALPQVVCNYRDVRFESIRLPGCPRGVNPVVSYAVALSCQCALCRRSTTDCGGPKDHPLTCDDPRFQDSSSSKAPPPSLPSPSRLPGPSDTPILPQ
no binding | – | – | – | Analog "D" (ligand) chain 1: not shown chain 2: SKEPLRPRCRPINATLAVEKEGCPVCITVNITICAGYCPTMTRVLQGVLPALPQVVCNYRDVRFESIRLPGCPRGVNPVVSYAVALSCQCALCDSDSTDCGGPKDHPLTCDDPRFQDSSSSKAPPPSLPSPSRLPGPSDTPILPQ
– | 0.15 relative to recombinant hCG | – | no binding | Analog "Q" (ligand) chain 1: not shown chain 2: SKEPLRPRCRPINATLAVEKEGCPVCITVNITICAGYCPTMTRVLQGVLPALPQVVCNYRDVRFESIRLPGCPRGVNPVVSYAVALSCQCALCDSDSTDCGGPKDHPSYCSFGE

Continued, binder first:

Binder | binding result [1] | activity relative to hCG (LH RECEPTORS; ratio of concentrations for 50% inhibition) [2] | binding result [2] | binding result [3]
Analog "GT" (ligand) chain 1: not shown chain 2: SKEPLRPRCRPINATLAVEKEGCPVCITVNITICAGYCPTMTRVLQGVLPALPQVVCNYRDVRFESIRLPGCPRGVNPVVSYAVALSCQCALCRRSTTDCIHEAIKTNYCTKPQKSY | no binding | 0.33 relative to recombinant hCG | – | –
recombinant hFSH (ligand) chain 1: not shown chain 2: NSCELTNITIAIEKEECRFCISINITWCAGYCYTRDLVYKDPARPKIQKTCTFKELVYETVRVPGCAHHADSLYTYPVALQCHCGKCDSDSTDCTVRGLGPSYCSFGEMKE | – | – | no binding | –
